Experimental data published in paper PMC10370356, “Molecular dissection studies of TAC1, a transcription activator of Candida drug resistance genes of the human pathogenic fungus Candida albicans” (Frontiers in Microbiology, 2023).

Biological target: T1, His-tagged C. albicans TATA box Binding Protein (TBP) (C. albicans, UniProt O43133 1-238)
T1 construct: Vector pET28a; fusion protein said to be 30 kDa; also called TBP1; TBP-pET28a; source: E. coli BL21 (DE3), purified (Ni-NTA)
T1 sequence: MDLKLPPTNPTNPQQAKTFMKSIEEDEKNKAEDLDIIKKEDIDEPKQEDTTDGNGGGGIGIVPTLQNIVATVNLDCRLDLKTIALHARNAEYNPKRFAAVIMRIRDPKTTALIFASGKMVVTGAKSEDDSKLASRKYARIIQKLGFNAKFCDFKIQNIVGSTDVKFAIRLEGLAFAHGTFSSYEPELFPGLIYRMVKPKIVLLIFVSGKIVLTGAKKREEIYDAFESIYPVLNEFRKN
Assay: pull-down; GST-AAD and His-TBP incubated with Glutathione Sepharose 4B beads, 3 h, 4 C, 20 mM HEPES pH 7.5, 200 mM NaCl, 0.1 mM EDTA, 10% glycerol, 0.1% NP-40; washes with 500 mM NaCl; eluted with 10 mM reduced glutathione; immunoblot with anti-GST and anti-His
Conditions: both partners purified

B1: GST-tagged Acidic Activation Domain (AAD) of Tac1p (domain or fragment)
chain: MNPSPTITNNTYNSNINTGSNSTGEPQVCYAQSPSYNASLSNIINNESTGRSPATSTSINQSMMNENYDLFNDYLIDNSAVNLPFSQFNNLPNFFFDNNLGI
notes: amplified from genomic DNA of strain SC5314; Vector pGEX-KG; fusion protein said to be 33 kDa; several closely spaced bands (degradation) on the anti-GST blot; The introduction gives other limits for the AAD (nucleotides 1354-2946); also called Tac1-AAD; TAC1-AAD; source: E. coli BL21 (DE3), purified (Glutathione Sepharose 4B)
  binding result: binds
